T1: human CD39 (ectonucleoside triphosphate diphosphohydrolase-1) (human, UniProt P49961 1-510)
T1 construct: whole, on cells; also called hCD39; ENTPD1
T1 sequence (looked up): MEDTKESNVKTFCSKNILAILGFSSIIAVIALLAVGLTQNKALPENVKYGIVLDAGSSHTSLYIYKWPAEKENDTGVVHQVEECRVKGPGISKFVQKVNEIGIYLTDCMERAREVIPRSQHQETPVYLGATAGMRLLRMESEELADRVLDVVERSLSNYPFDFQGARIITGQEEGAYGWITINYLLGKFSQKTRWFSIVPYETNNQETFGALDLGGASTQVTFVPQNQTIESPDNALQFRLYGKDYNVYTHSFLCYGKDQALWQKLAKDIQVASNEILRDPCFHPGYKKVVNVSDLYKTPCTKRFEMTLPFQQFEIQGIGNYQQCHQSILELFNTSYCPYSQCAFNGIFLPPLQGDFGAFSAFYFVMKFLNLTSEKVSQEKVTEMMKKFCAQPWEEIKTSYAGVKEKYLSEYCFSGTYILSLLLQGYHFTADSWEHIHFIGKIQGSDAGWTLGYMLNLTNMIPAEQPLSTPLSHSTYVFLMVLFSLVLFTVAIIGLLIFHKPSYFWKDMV

B1: PEO18, Human/Rabbit chimeric anti-human CD39 monoclonal antibody (antibody, V domains shown)
VH: QSVKEAGGRLVTPGGSLTLTCTVSGFSLSAYGISWVRQAPGKGLEWIGIIYSSGRTYYANWAKGRFTISKTSSTTVDLKMTSLTTEDTAAYFCARSRAGISSGDGFDSWGPGTLVTVSS
VL: ALVMTQTPSSVSAAVGGTVTINCQASQNIYSNLAWYQQKPGQRPQLLIYRASTLASGVPSRFKGSASGTEYTLTISGVQCDDAATYYCQQGFDSSNIDNTFGGGTEVVVT
notes: also called clone PEO18
B2: PEO24, Human/Rabbit chimeric anti-human CD39 monoclonal antibody (antibody, V domains shown)
VH: QSVEESGGRLVTPGTPLTLTCTVSGIDLSSNAMSWVRQAPGKGLEYIGIIRNNDITYYASWAKGRFTISKTSTTVDLIITSPTTEDTATYFCARGGGSYSIVFWNLWGPGTLVTVSS
VL: AYDMTQTPASVEVAVGGTVTINCQASERIYSNLAWYQQKPGQRPKLLIYYASTLASGVSSRFKGSGSGTQFTLTISGVQCADAATYYCQQGYSNNNVDNTFGGGTEVVVR
notes: also called clone PEO24
B3: PEO23, Human/Rabbit chimeric anti-human CD39 monoclonal antibody (antibody, V domains shown)
VH: QSVEESGGRLVTPGTPLTLTCTASGFSLSTHAINWVRQAPGKGLEWIGITYASGRTYYASWAKGRFTISKTSTTVDLKITSPTTEDTATYFCARNGADETFYYFDLWGPGTLVTVSS
VL: AYDMTQTPASVEAAVGGTVTIKCQASQNINTWLSWYQQKAGQPPKLLIYRASTLASGVSSRFKGSGSGTQFTLTISGVECADAATYYCQQYDASINIDNAFGGGTEVVVK
notes: also called clone PEO23
B4: PEO22, optimized afucosylated counterpart of PEOWT22 (antibody, human IgG1, kappa, V domains shown)
VH: EVQLVESGGGVVRPGGSLRLSCAASGFTFSSYAMHWVRQAPGKGLEWVAVISYDVSNKYYADSVKGRFTISRDNSKNTLYLQMNSLRAEDTAVYYCARSYYYYYGMDVWGQGTTVTVSS
VL: DVVMTQSPSSLSASVGDRVTITCRASQSISRYLAWYQQKPGQAPRLLIYDASNRATGIPVRFSGSGSGTDFTLTISRLEPEDFAVYYCQQFGRSPRTFGQGTRLEIKR
modifications: afucosylated (Fc glycan); no genetic modifications
B5: PEOWT22, fully human anti-CD39 monoclonal antibody (parent, fully fucosylated) (antibody, human IgG1, kappa, V domains shown)
VH: B4 VH
VL: B4 VL
B6: PEO21, Human/Rabbit chimeric anti-human CD39 monoclonal antibody (antibody, V domains shown)
VH: QSVEESGGRLVTPGTPLTLTCTVSGFSLSSYAMSWVRQAPGKGLEYIGIISSSGSTYYASWAKGRFTISKTSTTVDLKISSPTTEDTATYFCARDRVIYSIGPYYFNLWGPGTLVTVSS
VL: AYDMTQTPSSVSATVGGTVTINCQASEIIYSNLAWYQQKPGQPPKLLIYGASTLASGVPSRFKGSGSGTEYTLTISDLQCDDAATYYCQQSFSSNNVGNIFGGGTEVVVK
notes: also called clone PEO21
B7: PEO19, Human/Rabbit chimeric anti-human CD39 monoclonal antibody (antibody, V domains shown)
VH: QSVEESGGRLVTPGTHLTLTCTVSGFSLSKSIISWVRQAPGKGLEYIGIIGSSGSTYYANWAKGRFTISKTSSTTVDLRMTSLTPEDTATYFCARGLLYSGNKSWGPGTLVTVSS
VL: AIDMTQTPSSVSAAVGGTVTINCQSSQSVLLNNQLSWFQQKPGQPPKLLIYDASTLESGVPSRFTGSGSGTQFTLTISDLECDDAATYYCLGGYSGNLYAFGGGTEVLVK
notes: also called clone PEO19
B8: PEO20, Human/Rabbit chimeric anti-human CD39 monoclonal antibody (antibody, V domains shown)
VH: QSVEESGGRLVTPGTPLTLTCTVSGFSLSSYAISWVRQAPGKGLEYIAIINSYGTTYYASWAKGRVTISKTSSTVDLKISSPTTEDTATYFCARGDSYGSGVGLGLWGPGTLVTVSS
VL: AYDMTQTPASVEVAVGGTVTIKCQASQNIYSNLAWYQQKPGQRPKLLIYRASSLASGVPSRFSGSGSGTEFTLTISGVQCDDAATYYCQQGFSSNNVDNTFGGGTEVVVK
notes: also called clone PEO20
B9: PEONP22, afucosylated counterpart of PEOWT22 (antibody, human IgG1, kappa, V domains shown)
VH: B4 VH
VL: B4 VL
modifications: afucosylated (Fc glycan); no genetic modifications
notes: Produced by CHO cells stably transfected with the parental PEOWT22 plasmid

The first assay has as its target T1, human CD39 (ectonucleoside triphosphate …). Nature of the assay: flow cytometry epitope competition on HCC1739BL cells, competitor PE-Clone A1. As to the method:
HCC1739BL cells were incubated with a panel of 18 anti-human CD39 monoclonal antibodies (Human/Rabbit chimeric clones; unconjugated, 2 μg/mL) at 4° C. for 30 minutes, followed by washing and staining with PE-conjugated mouse anti-human CD39 monoclonal antibody (Clone A1) for 30 minutes at 4° C. Cells were then analyzed by flow cytometry and PE median fluorescence intensity (MFI) was detected. Cells incubated with media instead of chimeric antibody were used as control.
Unconjugated anti-human CD39 monoclonal antibodies (Human/Rabbit chimeric clones; 2 μg/mL) were incubated with HCC1739BL cells (1×10⁵ cells) for 30 minutes at 4° C. Cells were then washed twice with cell staining buffer and stained with PE-conjugated mouse anti-human CD39 monoclonal antibody Clone A1 (0.25 μg/mL, Biolegend #328208) for 30 minutes at 4° C. Cells were then washed twice and analyzed by a Cytek™ Aurora flow cytometer. PE median fluorescence intensity (MFI) was detected, and data was analyzed by FCS […] Express 7 software (De Novo Software). Cells incubated with media instead of the chimeric antibody were used as control.
For B1, the binding result is on record as “binds”.

Regarding B2, the binding result is listed as “binds”.

For B3, the binding result is on record as “binds”.

Another assay has the same target. Nature of the assay: cell-based or functional assay.
For B4, the “EC50 of NK cytotoxicity toward human eosinophils (in-vitro ADCC assay, human NK effector cells)” value was determined as 0.294 ng/mL.

Consider B5, for which the “EC50 of NK cytotoxicity toward human eosinophils (in-vitro ADCC assay, human NK effector cells)” value came out at 3.03 ng/mL.

The target is the same in a further assay. Nature of the assay: stable immune complex assay, HCC1739BL cells, 2 µg/mL, anti-human IgG Fc AF488 MFI, 24 h 37°C vs 20 min 4°C. As for the experimental part: Exemplary anti-human CD39 antibodies presenting high, low and no ADCC activity (2 μg/mL) were incubated with HCC1739BL cells for 24 hours at 37° C. in 5% CO₂ or 20 minutes at 4° C., followed by secondary antibody staining (anti-human IgG (Fc specific), Alexa Fluor® 488) for 30 minutes at 4° C. Cells were then washed and analyzed by flow cytometry. The difference in AF488 MFI between 20 minutes and 24 hours treatment represents the loss of human CD39 on cell membrane that was calculated as described in Materials and Methods. […] Hu/Ra: Human/Rabbit chimeric antibody; hIgG1: humanized rabbit antibody, IgG1 isotype.
HCC1739BL cells (5×10⁵ cells/mL) were incubated with anti-human CD39 monoclonal antibodies (2 μg/mL) or left untreated for 24 hours at 37° C. in 5% CO₂. The following day, untreated cells were exposed to the same panel of monoclonal antibodies (2 μg/mL) but for 20 minutes at 4° C. to obtain the basal level of CD39 expression. Cells were then washed twice with cell staining buffer and stained with anti-human IgG (Fc specific) Alexa Fluor® 488 (1:2000) for 30 minutes at 4° C., followed by two additional washes and fixation with paraformaldehyde (PFA, 2%) for 10 minutes at room temperature. Lastly, cells were washed twice and analyzed by a Cytek™ Aurora flow cytometer (Cytek Biosciences). Alexa Fluor® 488 (AF488) MFI was detected, and data was analyzed by FCS Express 7 software (De Novo Software). The percentage of human CD39 loss on cell membrane at 24 hours was calculated as: [(20 min MFI-24 h MFI/20 min MFI)]X100.
In the case of B6, the “loss of human CD39 (immune complex) on cell membrane at 24 hours” value (“loss of human CD39 (immune complex)” for short) is less than 30%.

On to B7, for which the “loss of human CD39 (immune complex)” value is less than 30%.

B8: the “loss of human CD39 (immune complex)” value is less than 30%.

Consider B9, for which the “loss of human CD39 (immune complex)” value was less than 30%.

The values are drawn from patent US20250289903A1 (PURINNOMIA BIOTECH, published 2025).
